To fix the notation:
T1: human FcγRIIb extracellular domain, C-terminal His-tag (human, UniProt P31994 43-217)
T1 construct: also called humanFcgRIIb; not shown: His-tag added to C-terminus
T1 sequence: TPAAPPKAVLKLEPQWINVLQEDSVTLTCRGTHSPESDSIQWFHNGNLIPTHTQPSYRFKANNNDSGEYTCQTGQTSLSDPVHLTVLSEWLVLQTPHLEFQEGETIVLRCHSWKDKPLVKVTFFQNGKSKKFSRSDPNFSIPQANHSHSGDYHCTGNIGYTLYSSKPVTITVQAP

T2: cynomolgus monkey FcγRIIa3 extracellular domain, C-terminal His-tag (cynomolgus monkey)
T2 construct: also called cyno FcγRIIa3; cynoFcgRIIa3; not shown: His-tag added to C-terminus
T2 chain: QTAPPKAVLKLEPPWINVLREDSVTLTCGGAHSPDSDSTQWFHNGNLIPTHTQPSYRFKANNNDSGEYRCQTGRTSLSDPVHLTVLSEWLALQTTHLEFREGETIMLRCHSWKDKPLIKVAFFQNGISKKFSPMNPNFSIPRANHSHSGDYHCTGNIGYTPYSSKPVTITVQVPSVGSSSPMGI

T3: cynomolgus monkey FcγRIIa1 extracellular domain, C-terminal His-tag (cynomolgus monkey)
T3 construct: also called cyno FcγRIIa1; cynoFcgRIIa1; not shown: His-tag added to C-terminus
T3 chain: T2 chain with T95P, A121T, S128A, P133H, N135D

T4: cynomolgus monkey FcγRIIa2 extracellular domain, C-terminal His-tag (cynomolgus monkey)
T4 construct: also called cyno FcγRIIa2; cynoFcgRIIa2; not shown: His-tag added to C-terminus
T4 chain: T2 chain with I127K, K130N, P133H, R142Q

T5: cynomolgus monkey FcγRIIb extracellular domain, C-terminal His-tag (cynomolgus monkey)
T5 construct: also called cyno FcγRIIb; cynoFcγRIIb; not shown: His-tag added to C-terminus
T5 chain: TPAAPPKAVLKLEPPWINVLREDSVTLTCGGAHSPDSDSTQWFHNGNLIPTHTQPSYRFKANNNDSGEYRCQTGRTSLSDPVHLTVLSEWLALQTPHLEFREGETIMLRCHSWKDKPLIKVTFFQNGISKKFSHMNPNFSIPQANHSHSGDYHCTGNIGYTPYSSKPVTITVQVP

T6: human FcγRIIaR extracellular domain, C-terminal His-tag (human, UniProt P12318 34-217)
T6 construct: also called human FcγRIIa (type R); FcgRIIaR; not shown: His-tag added to C-terminus
T6 chain: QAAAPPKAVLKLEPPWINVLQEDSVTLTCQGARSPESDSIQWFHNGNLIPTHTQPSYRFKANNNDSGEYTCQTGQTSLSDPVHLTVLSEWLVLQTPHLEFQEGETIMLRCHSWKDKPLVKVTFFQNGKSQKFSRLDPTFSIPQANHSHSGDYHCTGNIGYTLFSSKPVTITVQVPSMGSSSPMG

T7: human FcγRIIaH extracellular domain, C-terminal His-tag (human, UniProt P12318 34-217)
T7 construct: also called human FcγRIIa (type H); FcgRIIaH; not shown: His-tag added to C-terminus
T7 sequence: T6 chain with R134H

B1: M103240H795-SG1080 / M103202L1045-SK1 (antibody)
heavy: QVQLVESGGGLVQPGGSLRLSCAVSGIDLSHDDISWVRQAPGKGLEWVSIISYAGSTYYASWAKGRLTISKDTSKNQVVLTMTNMDPVDTATYYCARGVPAYSHGGDLWGQGTLVTVSSASTKGPSVFPLAPSSKSTSGGTAALGCLVKDYFPEPVTVSWNSGALTSGVHTFPAVLQSSGLYSLSSVVTVPSSSLGTQTYICNVNHKPSNTKVDKKVEPKSCDKTHTCPPCPAPELLNGPSVFLFPPKPKDTLMISRTPEVTCVVVDVSDEDPEVKFNWYVDGVEVHNAKTKPREELYNSTYRVVSVLTVLHRDWLNGKEYKCKVSNTALPKPIEKTISKAKGQRREPQVYTLPPSREEMTKNQVSLTCLVKGFYPSDIAVEWESNGQPENNYKTTPPVLDSDGSFFLYSKLTVDKSRWQQGNVFSCSVMHEALHAHYTRKELSLSP
light: DIVMTQSPATLSLSPGERATLSCTTSQSVYHENWLSWFQQKPGQPPKLLIYWASTLAYGVPSRFSGSGSGTDFTLTISSLQPEDAATYYCAGGYGGGRYAFGQGTKVEIKRTVAAPSVFIFPPSDEQLKSGTASVVCLLNNFYPREAKVQWKVDNALQSGNSQESVTEQDSKDSTYSLSSTLTLSKADYEKHKVYACEVTHQGLSSPVTKSFNRGEC
notes: CH with G236N/H268D/Q295L/Q311R/K326T/A330K/P343R/N434A/Q438R/S440E against SG1 (EU numbering); also called MS1032LO19-SG1080
B2: M103240H795-SG1077 / M103202L1045-SK1 (antibody)
heavy: B1 heavy with L237W, M430L, Y438T
light: B1 light
notes: CH with L235W/G236N/H268D/Q295L/Q311R/K326T/A330K/P343R/M428L/N434A/Y436T/Q438R/S440E against SG1 (EU numbering); also called MS1032LO19-SG1077
B3: M103240H795-SG1081 / M103202L1045-SK1 (antibody)
heavy: B1 heavy with L237W
light: B1 light
notes: CH with L235W/G236N/H268D/Q295L/Q311R/K326T/A330K/P343R/N434A/Q438R/S440E against SG1 (EU numbering); also called MS1032LO19-SG1081

Positions count from the first letter of the chain named. In names and notes the source's numbering stands.

One test concerns the target T1, human FcγRIIb extracellular domain, …. As to the kind of experiment: SPR (BIACORE), antibody captured, FcγR analyte. For orientation: In SPR one partner is held on a chip, and binding of the other changes the refractive index at the surface.
In general, Kd refers to the equilibrium constant for the complex coming apart. B1: binding was put at a Kd of 370 nM.

The molecule B2 had a Kd of 510 nM.

Regarding B3, the Kd turned out to be 500 nM.

Another test addresses T2, cynomolgus monkey FcγRIIa3 …. As to the kind of experiment: SPR (BIACORE), antibody captured, FcγR analyte.
As for B1, binding was characterised by a dissociation constant (Kd) of 1100 nM.

In turn, B2 returned a Kd of 2000 nM.

Consider B3, for which binding was characterised by a dissociation constant (Kd) of 2100 nM.

In another test the target is T3, cynomolgus monkey FcγRIIa1 …. As to the kind of experiment: SPR (BIACORE), antibody captured, FcγR analyte.
B1: the affinity, expressed as Kd, was 650 nM.

The molecule B2 gave a Kd of 1400 nM.

Take B3: the equilibrium dissociation constant (Kd) was found to be 1400 nM.

The target in another test is T4, cynomolgus monkey FcγRIIa2 …. As to the kind of experiment: SPR (BIACORE), antibody captured, FcγR analyte.
In turn, B1 displayed a Kd of 680 nM.

Regarding B2, binding was characterised by a dissociation constant (Kd) of 1300 nM.

B3 gave a Kd of 1800 nM.

The next test concerns the target T5, cynomolgus monkey FcγRIIb extracellular …. As to the kind of experiment: SPR (BIACORE), antibody captured, FcγR analyte.
B1: the affinity, expressed as Kd, was 140 nM.

Take B2: the dissociation constant Kd was determined as 320 nM.

Molecule B3 had a dissociation constant (Kd) of 290 nM.

Another test addresses T6, human FcγRIIaR extracellular domain, …. As to the kind of experiment: SPR (BIACORE), antibody captured, FcγR analyte.
For B1, binding was characterised by a dissociation constant (Kd) of 560 nM.

The molecule B2 registered a dissociation constant Kd of 690 nM.

B3 had a Kd of 680 nM.

The target of a further test is T8, human FcγRIIIaV extracellular domain, C-terminal His-tag (human, UniProt P08637 17-208).
T8 construct: also called FcgRIIIaV; not shown: His-tag added to C-terminus
T8 sequence (P08637 17-208 F176V): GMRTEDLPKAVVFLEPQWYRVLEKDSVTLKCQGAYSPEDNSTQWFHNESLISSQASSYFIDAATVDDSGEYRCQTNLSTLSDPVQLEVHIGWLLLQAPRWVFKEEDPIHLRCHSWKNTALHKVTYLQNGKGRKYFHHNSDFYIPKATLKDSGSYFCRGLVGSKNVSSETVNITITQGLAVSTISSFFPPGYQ
As to the kind of experiment: SPR (BIACORE), antibody captured, FcγR analyte.
Turning to B1, binding was put at a Kd of 4600 nM.

The molecule B2 had an equilibrium dissociation constant (Kd) of 3400 nM.

B3 showed a Kd of 3400 nM.

In the next test the target is T7, human FcγRIIaH extracellular domain, …. As to the kind of experiment: SPR (BIACORE), antibody captured, FcγR analyte.
Regarding B1, the Kd came to 450 nM.

Turning to B2, the Kd amounted to 930 nM.

In the case of B3, the affinity, expressed as Kd, was 990 nM.

The target of the next test is T9, cynomolgus monkey FcγRIIIaS extracellular domain, C-terminal His-tag (cynomolgus monkey, UniProt A3RFZ7 21-206 (rhesus entry)).
T9 construct: also called cyno FcγRIIIaS; cynoFcγRIIIaS; not shown: His-tag added to C-terminus
T9 sequence (A3RFZ7 21-206): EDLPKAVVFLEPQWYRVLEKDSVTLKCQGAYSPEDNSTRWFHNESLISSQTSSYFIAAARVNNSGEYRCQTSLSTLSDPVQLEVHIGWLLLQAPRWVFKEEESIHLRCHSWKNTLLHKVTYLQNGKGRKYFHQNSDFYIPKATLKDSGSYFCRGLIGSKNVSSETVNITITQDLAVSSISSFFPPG
As to the kind of experiment: SPR (BIACORE), antibody captured, FcγR analyte.
As for B1, the affinity, expressed as Kd, was 1400 nM.

B2 had a Kd of 2900 nM.

Molecule B3 registered a Kd of 2900 nM.

The next test addresses T1, human FcγRIIb extracellular domain, …. As to the kind of experiment: SPR (BIACORE); KD of parent SG1 / KD of variant.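 Note: relative to parent M103205H795-SG1 carrying the SG1 human heavy chain constant region.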
In the case of B1, the “KD fold (SG1 = 1)” value worked out at 10.5 fold.

B2: the “KD fold (SG1 = 1)” value amounted to 7.5 fold.

In the case of B3, the “KD fold (SG1 = 1)” value turned out to be 7.7 fold.

The target in the next test is T2, cynomolgus monkey FcγRIIa3 …. As to the kind of experiment: SPR (BIACORE); KD of parent SG1 / KD of variant.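 Note: relative to parent M103205H795-SG1 carrying the SG1 human heavy chain constant region.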
In the case of B1, the “KD fold (SG1 = 1)” value amounted to 6.1 fold.

As for B2, the “KD fold (SG1 = 1)” value turned out to be 3.3 fold.

For B3, the “KD fold (SG1 = 1)” value is 3.1 fold.

The target of the next test is T3, cynomolgus monkey FcγRIIa1 …. As to the kind of experiment: SPR (BIACORE); KD of parent SG1 / KD of variant.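 Note: relative to parent M103205H795-SG1 carrying the SG1 human heavy chain constant region.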
Regarding B1, the “KD fold (SG1 = 1)” value was 5.8 fold.

In the case of B2, the “KD fold (SG1 = 1)” value stood at 2.7 fold.

As to B3, the “KD fold (SG1 = 1)” value is 2.7 fold.

In the next test the target is T4, cynomolgus monkey FcγRIIa2 …. As to the kind of experiment: SPR (BIACORE); KD of parent SG1 / KD of variant.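 Note: relative to parent M103205H795-SG1 carrying the SG1 human heavy chain constant region.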
Turning to B1, the “KD fold (SG1 = 1)” value stood at 6.1 fold.

B2: the “KD fold (SG1 = 1)” value was determined as 3.1 fold.

On to B3, for which the “KD fold (SG1 = 1)” value turned out to be 3.2 fold.

Another test deals with T5, cynomolgus monkey FcγRIIb extracellular …. As to the kind of experiment: SPR (BIACORE); KD of parent SG1 / KD of variant.
For B1, the “KD fold (SG1 = 1)” value came to 12.6 fold.

In the case of B2, the “KD fold (SG1 = 1)” value stood at 5.4 fold.

In the case of B3, the “KD fold (SG1 = 1)” value came out at 5.9 fold.

A further test has as its target T6, human FcγRIIaR extracellular domain, …. As to the kind of experiment: SPR (BIACORE); KD of parent SG1 / KD of variant.
On to B1, for which the “KD fold (SG1 = 1)” value amounted to 1.7 fold.

B2: the “KD fold (SG1 = 1)” value stood at 1.4 fold.

As for B3, the “KD fold (SG1 = 1)” value came out at 1.4 fold.

The target of the next test is T8, human FcγRIIIaV extracellular domain, …. As to the kind of experiment: SPR (BIACORE); KD of parent SG1 / KD of variant.
Turning to B1, the “KD fold (SG1 = 1)” value amounted to 0.13 fold.

For B2, the “KD fold (SG1 = 1)” value is 0.17 fold.

For the molecule B3, the “KD fold (SG1 = 1)” value came to 0.17 fold.

The next test concerns the target T7, human FcγRIIaH extracellular domain, …. As to the kind of experiment: SPR (BIACORE); KD of parent SG1 / KD of variant.
As to B1, the “KD fold (SG1 = 1)” value is 2.1 fold.

Regarding B2, the “KD fold (SG1 = 1)” value stood at 1 fold.

Consider B3, for which the “KD fold (SG1 = 1)” value came out at 1 fold.

In the next test the target is T9, cynomolgus monkey FcγRIIIaS …. As to the kind of experiment: SPR (BIACORE); KD of parent SG1 / KD of variant.
Consider B1, for which the “KD fold (SG1 = 1)” value worked out at 0.19 fold.

Take B2: the “KD fold (SG1 = 1)” value is 0.09 fold.

On to B3, for which the “KD fold (SG1 = 1)” value turned out to be 0.09 fold.
